The chains are these.
B1: PRT-398 (protein)
chain: MVTSVWTKGVTPPADFTQGEDVFHAPYVANQGWYDITKTFNGKDDLLCGAATAGNMLHWWFDQNKEYIEAYLKKHPEKQKIMFGDQELLDVRKAINTKGSQKNSELFNYFRDKAFPNLSARRLGVMPDLVLDMFINGYYLNVTKTQTTDVNRTYQEKDKRGGIFDAVFTRGDQSKLLTSRHDFKEKGLKEISDLIKQELTEGKALGLSHTYANVRINHVINLWGADFDSDGNLKAIYVTDSDSNASIGMKKYDVGVNSAGKVAISAKEIKEDNIGAQVLGLFTLSTGQDIWNQTN
B2: PRT-406 (protein)
chain: B1 chain with G42R, D253F
B3: PRT-414 (protein)
chain: MTITSVWTKGVTPPTPEDFRYNNEDVLHAPYVANQGWYDITKTFDGKDNLLCGAATAGNMLHWWFDQNKEEIERYLKKHPEKQKIIFGNQELFDVKAAIDTKDSQTNSKLFNYFRDKAFPNLSARQLGVMPDLVLDMFINGYYLNLGKTQSTDVNRPYQDKDKRGGIFDAVFTRGDQTTLLTARHDLKNKGLNEISDLIKQELTEGKALALSHTYANVRINHVINLWGADFDAEGNLIAIYVTDSDANASIGMKKYFVGVNANGKVAISAKKIEGDNIGAQVLGLFTLSTGQDIWQKLS
B4: PRT-382 (protein)
chain: MVTSVWTKGVTPPTNFTYGEDVLHAPYVANQGWYDITKTFNGKDDLLCGAATAGNMLHWWFDQNKEQIENYLKKHPEKQKINFNGEQMFDVKEAIDTKDSQLDSKLFEYFKEKAFPYLSTKHLGVFPDHVIDMFINGYRLSLTNHGPTPVKRGSKDPRGGIFDAVFTRGDQSKLLTNRHDFKEKTLKEISDLIKQELTEGKALGISHTYANVRINHVINLWGADFDAEGNLEAIYVTDSDSNASIGMKKYVVGVNSNGKVAISAKEIEEDNIGAQVLGLFTLSTGQDIWNQTN
B5: PRT-390 (protein)
chain: B4 chain with M88L, V251F

From patent US20250027068 come the findings set out here.

Numbering of substitutions follows the chain as printed.

This series has as its target pooled human IgG (human IgG1, 2, 3 and 4).
The protein B1 had an Enzyme Activity Endpoint Assay (purified): Fab′2 of 555 ng/µL, an Enzyme Activity Endpoint Assay (purified): Fc of 370 ng/µL, an Enzyme Activity Endpoint Assay (purified): IgG of 0 ng/µL and an Enzyme Activity Endpoint Assay (purified): scIgG of 196 ng/µL. The protein further registered an Enzyme Activity Endpoint Assay: Fab′2 of 555 ng/µL, an Enzyme Activity Endpoint Assay: Fc of 370 ng/µL, an Enzyme Activity Endpoint Assay: IgG of 0 ng/µL and an Enzyme Activity Endpoint Assay: scIgG of 196 ng/µL.
B2: the Enzyme Activity Endpoint Assay (purified): Fab′2 stood at 435 ng/µL, the Enzyme Activity Endpoint Assay (purified): Fc came out at 299 ng/µL, the Enzyme Activity Endpoint Assay (purified): IgG is 135 ng/µL and the Enzyme Activity Endpoint Assay (purified): scIgG worked out at 108 ng/µL. The protein also returned an Enzyme Activity Endpoint Assay: Fab′2 of 435 ng/µL, an Enzyme Activity Endpoint Assay: Fc of 299 ng/µL, an Enzyme Activity Endpoint Assay: IgG of 135 ng/µL and an Enzyme Activity Endpoint Assay: scIgG of 108 ng/µL.
B3 came in with an Enzyme Activity Endpoint Assay (purified): Fab′2 of 496 ng/µL, an Enzyme Activity Endpoint Assay (purified): Fc of 341 ng/µL, an Enzyme Activity Endpoint Assay (purified): IgG of 77 ng/µL and an Enzyme Activity Endpoint Assay (purified): scIgG of 129 ng/µL. The Enzyme Activity Endpoint Assay: Fab′2 is 496 ng/µL, the Enzyme Activity Endpoint Assay: Fc was 341 ng/µL, the Enzyme Activity Endpoint Assay: IgG was found to be 77 ng/µL and the Enzyme Activity Endpoint Assay: scIgG came to 129 ng/µL.
Regarding B4, the Enzyme Activity Endpoint Assay (purified): Fab′2 worked out at 585 ng/µL, the Enzyme Activity Endpoint Assay (purified): Fc was determined as 380 ng/µL, the Enzyme Activity Endpoint Assay (purified): IgG stood at 0 ng/µL and the Enzyme Activity Endpoint Assay (purified): scIgG was determined as 226 ng/µL.
In turn, B5 yielded an Enzyme Activity Endpoint Assay (purified): Fab′2 of 578 ng/µL, an Enzyme Activity Endpoint Assay (purified): Fc of 371 ng/µL, an Enzyme Activity Endpoint Assay (purified): IgG of 0 ng/µL and an Enzyme Activity Endpoint Assay (purified): scIgG of 227 ng/µL. In addition, the Enzyme Activity Endpoint Assay: Fab′2 came to 578 ng/µL, the Enzyme Activity Endpoint Assay: Fc was 371 ng/µL, the Enzyme Activity Endpoint Assay: IgG turned out to be 0 ng/µL and the Enzyme Activity Endpoint Assay: scIgG was found to be 227 ng/µL.
